Literature values in publication PMC3204931.

Target: Rac2 (Homo sapiens) (UniProt P15153)

Q: With PLD2 (from UniProt O14939) as the substance, how does the Kd read?
A: 10 nM
